In patent US20240360228A1 (BIOLEGEND, published 2024):
Changes are numbered by the printed parent chain.

B1: Commercial 433H anti-human CCR8 antibody (antibody, from another filing, V domains shown)
VH: EVQLVETGGGLVQPKGSLRLSCAASGFPFNTFAMNWVRQAPGKGLEWLARIRSKSNNYATYYADSVKDRFTISRDDSRRMLYLLMNNVKFEDTAIYYCVRGKENNYGYAMDYWGQGTSVTVSS
VL: DIVMTQAAPSVPVTPGESVSISCRSSQSLLHSNGNTYLYWFLQRPGQSPQLLIYRMSNLASGVPDRFSGSGSGTAFTLRISRVEAEDVGVYYCMQHLEYPFTFGIGTKLELKR
B2: anti-CCR8 monoclonal antibody AB11 (antibody, V domains shown)
VH: EVQLVESGGGLVQPKGSLKLSCAASGFAFNTYAMNWVRQAPGKGLEWIARLRSKSNFYATYYADSVKDRFTISRDDSQSMLYLQMNNLKTEDTAVYYCVRGRELGPSYAMDYWGQGTSVTVSS
VL: DIVMTQAAPSVPVTPGESVSISCRSSKSLLHSNGNTYLYWFLQRPGQSPQLLIYRMSNLASGVPDRFSGSGSGTAFTLRISRVEAEDVGVYYCMQHLEYPYTFGGGTKLEIK
notes: Hybridoma monoclonal; also called antibody 11; clone 11
B3: anti-CCR8 monoclonal antibody AB13 (antibody, V domains shown)
VH: EVQLVETGGGLVQPKGSLKLSCAASGFTFNAYAMNWVRQAPGKGLEWVARIRTKSNNYATYYADSVKDRFTISRDDSQTMLYLQMNNLKTEDTAMYYCVRDRATVTTGRAMDYWGQGTSVTVSS
VL: B2 VL with V11L, P45A, Y101F, G105S
notes: Hybridoma monoclonal; also called antibody 13; clone 13

Key:
[1] = target: human chemokine (C-C motif) receptor 8 (CCR8) (human) (UniProt P51685); assay: flow cytometry, human PBMC, CD3+ gate; % cells stained by PE-L263G8 after isotype control block
[2] = target: human chemokine (C-C motif) receptor 8 (CCR8) (human) (UniProt P51685); assay: flow cytometry, human PBMC, CD3+ gate; % cells stained by PE-433H after isotype control block
[3] = target: T1, human chemokine (C-C motif) receptor 8 (CCR8) (human, UniProt P51685 1-355); assay: flow cytometry blocking, human PBMC, CD3+ gate; competitor PE-AB11
T1 construct: also called hCCR8
Description: (§1) For blocking studies, 100 μL of the cell suspension were incubated with 10 μg purified isotype control, AB1, AB2, AB3, AB4, AB5, AB8, AB9, AB10, AB11, AB12, AB13, AB14, AB15, and Commercial ABI antibodies, or isotype control, as blocking agents.
(§2) After incubation with the blocking agent, the cells were incubated with 0.25 μg of the indicated PE-conjugated antibody plus anti-human CD4 APC or anti-human CD3 for another 15 minutes in the dark and then washed 2 times with Cell Staining Buffer, and acquired in a FACSCanto II flow cytometer (BD Biosciences); the data was analyzed using FCS Express (De Novo Software); MFI correspond to the CCR8+ CD4+ lymphocytes or CCR8+ CD3+ lymphocytes.
(§3) Percentage original MFI was calculated by dividing the MFI of samples blocked with AB1, AB2, AB3, AB4, AB5, AB6, AB7, AB8, AB9, AB10, AB11, AB12, AB13, AB14, AB15, and Commercial ABI antibodies, by the MFI of samples blocked with the corresponding isotype control. This value was subtracted from 100 to get a blocking percentage. The formula is shown below: […]

[4] = target: T1, human chemokine (C-C motif) receptor 8 …; assay: flow cytometry blocking, human PBMC, CD3+ gate; % cells stained by competitor PE-AB8 after block
Description: as §1, §2

[5] = target: T1, human chemokine (C-C motif) receptor 8 …; assay: flow cytometry blocking, human PBMC, CD3+ gate; competitor PE-L263G8
[6] = target: T1, human chemokine (C-C motif) receptor 8 …; assay: flow cytometry blocking, human PBMC, CD3+ gate; % cells stained by competitor PE-AB6 after block
Description: as §1, §2

[7] = target: T1, human chemokine (C-C motif) receptor 8 …; assay: flow cytometry blocking, human PBMC, CD3+ gate; % cells stained by competitor PE-AB12 after block
Description: as §1, §2

[8] = target: T1, human chemokine (C-C motif) receptor 8 …; assay: flow cytometry blocking, human PBMC, CD3+ gate; competitor PE-AB10
Description: as §1, §2, §3

[9] = target: T1, human chemokine (C-C motif) receptor 8 …; assay: flow cytometry blocking, human PBMC, CD3+ gate; % cells stained by competitor PE-AB11 after block
Description: as §1, §2

[10] = target: T1, human chemokine (C-C motif) receptor 8 …; assay: flow cytometry blocking, human PBMC, CD3+ gate; competitor PE-AB5
Description: as §1, §2, §3

[11] = target: T1, human chemokine (C-C motif) receptor 8 …; assay: flow cytometry blocking, human PBMC, CD3+ gate; competitor PE-AB8
Description: as §1, §2, §3

[12] = target: T1, human chemokine (C-C motif) receptor 8 …; assay: flow cytometry blocking, human PBMC, CD3+ gate; % cells stained by competitor PE-433H after block
Description: as §1, §2

[13] = target: T1, human chemokine (C-C motif) receptor 8 …; assay: flow cytometry blocking, human PBMC, CD3+ gate; % cells stained by competitor PE-AB15 after block
Description: as §1, §2

[14] = target: T1, human chemokine (C-C motif) receptor 8 …; assay: flow cytometry blocking, human PBMC, CD3+ gate; % cells stained by competitor PE-L263G8 after block
Description: as §1, §2

[15] = target: T1, human chemokine (C-C motif) receptor 8 …; assay: flow cytometry blocking, human PBMC, CD3+ gate; % cells stained by competitor PE-AB14 after block
Description: as §1, §2

[16] = target: T1, human chemokine (C-C motif) receptor 8 …; assay: flow cytometry blocking, human PBMC, CD3+ gate; competitor PE-AB15
Description: as §1, §2, §3

[17] = target: T1, human chemokine (C-C motif) receptor 8 …; assay: flow cytometry blocking, human PBMC, CD3+ gate; competitor PE-AB12
Description: as §1, §2, §3

[18] = target: T1, human chemokine (C-C motif) receptor 8 …; assay: flow cytometry blocking, human PBMC, CD3+ gate; % cells stained by competitor PE-AB13 after block
Description: as §1, §2

[19] = target: T1, human chemokine (C-C motif) receptor 8 …; assay: flow cytometry blocking, human PBMC, CD3+ gate; competitor PE-AB13
Description: as §1, §2, §3

[20] = target: T1, human chemokine (C-C motif) receptor 8 …; assay: flow cytometry blocking, human PBMC, CD3+ gate; % cells stained by competitor PE-AB5 after block
Description: as §1, §2

[21] = target: T1, human chemokine (C-C motif) receptor 8 …; assay: flow cytometry blocking, human PBMC, CD3+ gate; competitor PE-433H
[22] = target: T1, human chemokine (C-C motif) receptor 8 …; assay: flow cytometry blocking, human PBMC, CD3+ gate; competitor PE-AB7
Description: as §1, §2, §3

[23] = target: T1, human chemokine (C-C motif) receptor 8 …; assay: flow cytometry blocking, human PBMC, CD3+ gate; competitor PE-AB6
Description: as §1, §2, §3

[24] = target: T1, human chemokine (C-C motif) receptor 8 …; assay: flow cytometry blocking, human PBMC, CD3+ gate; competitor PE-AB14
Description: as §1, §2, §3

[25] = target: T1, human chemokine (C-C motif) receptor 8 …; assay: flow cytometry blocking, human PBMC, CD3+ gate; % cells stained by competitor PE-AB10 after block
Description: as §1, §2

[26] = target: T1, human chemokine (C-C motif) receptor 8 …; assay: flow cytometry blocking, human PBMC, CD3+ gate; % cells stained by competitor PE-AB7 after block
Description: as §1, §2

T1 sequence (P51685 whole entry): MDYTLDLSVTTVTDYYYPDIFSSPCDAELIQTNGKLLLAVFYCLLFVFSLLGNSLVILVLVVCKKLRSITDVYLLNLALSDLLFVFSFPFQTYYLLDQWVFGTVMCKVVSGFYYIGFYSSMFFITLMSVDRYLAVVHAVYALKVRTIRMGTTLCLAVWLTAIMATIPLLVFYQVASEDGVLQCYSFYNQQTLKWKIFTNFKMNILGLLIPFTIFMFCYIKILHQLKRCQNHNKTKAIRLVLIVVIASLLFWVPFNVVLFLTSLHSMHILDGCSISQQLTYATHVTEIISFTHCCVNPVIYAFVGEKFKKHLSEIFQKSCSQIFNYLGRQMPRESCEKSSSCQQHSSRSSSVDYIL
human chemokine (C-C motif) receptor 8 (CCR8) (human), sequence (P51685 whole entry): as above

Molecule | % Blocking [3] [%] | % Positive cells [4] [%] | % Blocking [5] [%] | % Positive cells [6] [%] | % Positive cells [7] [%] | % Blocking [8] [%] | % Positive cells [9] [%] | % Blocking [10] [%] | % Blocking [11] [%] | % Positive cells [12] [%] | % Positive cells [13] [%] | % Positive cells [14] [%] | % Positive cells [15] [%] | % Blocking [16] [%] | % Blocking [17] [%] | % Positive cells [18] [%] | % Blocking [19] [%] | % Positive cells [20] [%] | % Blocking [21] [%] | % Blocking [22] [%] | also measured
Commercial L263G8 anti-human CCR8 antibody |  |  |  |  |  |  |  |  |  |  |  |  |  |  |  |  |  |  |  |  | % Positive cells [1]: 5.87%
B1 |  |  |  |  |  |  |  |  |  |  |  |  |  |  |  |  |  |  |  |  | % Positive cells [2]: 7.07%
B2 | 98.7 | 8.8 | 92.7 | 8.04 | 0.17 | 96.5 | 0.09 | -2.41 | -4.02 | 3.73 | 0.16 | 0.43 | 0.12 | 97.6 | 97.7 | 0.39 | 94.1 | 8.49 | 47.2 | 2.53 | % Blocking [23]: 2.9%; % Blocking [24]: 98.3%; % Positive cells [25]: 0.21%; % Positive cells [26]: 8.87%
B3 | 0.85 | 6.32 | 20.3 | 8.62 | 6 | -2.65 | 6.96 | -1.21 | 25.3 | 6.58 | 3.52 | 4.68 | 4.32 | 46.5 | 20.3 | 4.34 | 34.7 | 8.39 | 6.93 | 30.3 | % Blocking [23]: -4.11%; % Blocking [24]: 39.4%; % Positive cells [25]: 6.19%; % Positive cells [26]: 6.34%
